Experimental data: patent US7919580B2, “Polysaccharide-protein binding model and nano-fibril formation of a starch binding domain” (priority 2008, dated 2011)

How the values were obtained:
RoGACBM21 = target: T1, RoGACBM21 (Rhizopus oryzae, UniProt P07683); conditions: reported binding assay results; read-out: Kd (binding affinity) of soluble ligand with RoGACBM21; cited from earlier work
T1 construct: the recombinant SBD of 108 amino acid residues; 6xHis (C); made in house; host or cells: E. coli BL21-Gold (DE3), pET23a(+)

[1] = Circular dichroism spectroscopy and thermal unfolding; format: physicochemical; conditions: far-UV CD at 215 nm; for β-sheet signals upon heating: ascending temperature
Method: (A) CD spectra were collected from 200 to 260 nm at 25° C. at a concentration of 50 μM in 10 mM sodium acetate buffer (pH 4.5). (B) Thermal unfolding of SBD was measured by monitoring changes in the far-UV CD spectra at 215 nm. (C) CD spectra of SBD were recorded between 200 and 260 nm at various temperatures
CD spectra and thermostabilities were recorded in a 0.1-cm cuvette using an Aviv model 202 CD Spectrometer. Data collection and calculation were carried out as previously described.

[2] = Sedimentation velocity ultracentrifugation; format: physicochemical
Method: The sedimentation velocity studies were performed at 50,000 rpm for 30 μM (solid line) and 60 μM (dotted line) SBD, and absorbance scans were recorded at 280 nm.

[3] = Fluorescence spectrophotometry of binding to βCD; conditions: intrinsic protein fluorescence, 50 mM sodium acetate pH 5.5, 25° C.; read-out: β-cyclodextrin Kd
Method: Fluorescence spectrophotometry of the binding of wild-type or mutant RoGACBM21 to βCD was recorded by measuring changes in the intrinsic protein fluorescence intensity. Experiments were performed in 50 mM sodium acetate, pH 5.5, at 25° C. using a PerkinElmer LS-55 spectrophotometer. Circular and linear carbohydrates (2 to 20 mM) were titrated into RoGACBM21 (1 μM, 2 mL), and the fluorescence-emission spectrum was monitored at 350 nm with a fixed excitation at 280 nm. The relative changes in fluorescence intensity were plotted against ligand concentration, and the data were fitted to a simulated curve using the appropriate equation for a single binding site.

[4] = Thioflavin T fluorescence (ThT) assay for fibril formation; format: physicochemical; conditions: SBD sample heated at 97° C.
Method: Purified SBDs or synthetic peptides were dissolved in 10 mM sodium-citrate or phosphate-citrate buffer to a final concentration of 100 μM (at indicated pH). […] The measurements were recorded in a Perkin Elmer LS-55 spectrofluorometer at 25° C.
The relative fluorescence, peaked at 482 nm, subtracted from the background of buffer from the total fluorescence were measured as the amount of fibrillar aggregates with the excitation wavelength (slit width=4 nm) set at 450 nm and monitoring emission wavelength (slit width=8 nm) set at from 470 to 630 nm.

[5] = Starch binding isotherm (saturation binding assay); conditions: insoluble starch, 50 mM sodium acetate pH 5.5, 25° C., 16 h
Method: The starch binding isotherm was analyzed as a saturation binding assay as reported. Wild-type and mutant RoGACBM21 derivatives (100 μL, in 50 mM sodium acetate, pH 5.5) were mixed with 0.1 mg of prewashed insoluble starch and incubated at 25° C. with gentle stirring for 16 h. After centrifugation at 16,000×g for 10 min at 4° C., the protein concentration of the supernatant (unbound protein) was determined by BCA assay, and the amount of bound protein was calculated from the difference between the initial and unbound protein concentrations. The Kd and Bmax values were determined by fitting to the non-linear regression of the binding isotherms using a standard single-site binding model.

[6] = starch; fold higher than AnGACBM20; cited from earlier work

OC[C@H]1O[C@@H]2O[C@H]3[C@H](O)[C@@H](O)[C@@H](O[C@H]4[C@H](O)[C@@H](O)[C@@H](O[C@H]5[C@H](O)[C@@H](O)[C@@H](O[C@H]6[C@H](O)[C@@H](O)[C@@H](O[C@H]7[C@H](O)[C@@H](O)[C@@H](O[C@H]8[C@H](O)[C@@H](O)[C@@H](O[C@H]1[C@H](O)[C@H]2O)O[C@@H]8CO)O[C@@H]7CO)O[C@@H]6CO)O[C@@H]5CO)O[C@@H]4CO)O[C@@H]3CO [βCD, β-cyclodextrin]
Kd (RoGACBM21): ~5 µM

maltoheptaose [G7]
Kd (RoGACBM21): ~5 µM

B1: WT: recombinant starch-binding domain (family 21 carbohydrate binding module) of Rhizopus oryzae glucoamylase, 108 amino acid residues (protein, listed as Rhizopus oryzae)
chain: ASIPSSASVQLDSYNYDGSTFSGKIYVKNIAYSKKVTVVYADGSDNWNNNGNIIAASFSGPISGSNYEYWTFSASVKGIKEFYIKYEVSGKTYYDNNNSANYQVSTSK
modifications: DOMAIN (1)..(108)
apparent temperature for unfolding [1]: approximately 65 °C | s20 (sedimentation coefficient) ([2]; 30 μM, 50,000 rpm): 1.3 S | oligomeric state in solution ([2]; high concentration (60 μM)): oligomeric forms of SBD appeared | oligomeric state in solution ([2]; low concentration (30 μM)): mainly as a single monomeric species | Kd [3]: 5.1 ± 0.7 µM | increase in ThT fluorescence emission intensity at 482 nm [4]: 9 fold | Kd [5]: 1.4 ± 0.1 µM | Starch Bmax [5]: 41.1 ± 1.1 µmol/g | maximal amount of bound protein (Bmax) relative to AnGACBM20 [6]: 40-70 fold

B2: SBD (K108D): SBD mutant K108D (protein)
chain: ASIPSSASVQLDSYNYDGSTFSGKIYVKNIAYSKKVTVVYADGSDNWNNNGNIIAASFSGPISGSNYEYWTFSASVKGIKEFYIKYEVSGKTYYDNNNSANYQVSTSD
modifications: Modified SBD.
β-sheet signals upon heating [1]: diminished the β-sheet signals upon heating

B3: SBD (K108R): SBD mutant K108R (protein)
chain: ASIPSSASVQLDSYNYDGSTFSGKIYVKNIAYSKKVTVVYADGSDNWNNNGNIIAASFSGPISGSNYEYWTFSASVKGIKEFYIKYEVSGKTYYDNNNSANYQVSTSR
modifications: Modified SBD.
β-sheet signals upon heating [1]: still showed strong β-sheet signals upon heating

B4: SBD (K108H): SBD mutant K108H (protein)
chain: ASIPSSASVQLDSYNYDGSTFSGKIYVKNIAYSKKVTVVYADGSDNWNNNGNIIAASFSGPISGSNYEYWTFSASVKGIKEFYIKYEVSGKTYYDNNNSANYQVSTSH
modifications: Modified SBD.
β-sheet signals upon heating [1]: still showed strong β-sheet signals upon heating
